From patent US20250355001A1 (GTINVENT, published 2025)
Where two headings read alike, the source gives them in different places. Where no end group is shown, it is not given here. The star is where a group is joined. Biotin = O=C1N[C@H]2[C@H](CS[C@H]2CCCCC(=O)*)N1

Key:
[1] = molecular target: T1, full length human tau protein 2N4R (hT40) (human, UniProt P10636 1-758); experiment: hT40 ELISA
T1 construct: recombinant; also called T441
Target sequence in this assay (P10636 other isoform, or with tags, fused parts or gaps limits assumed): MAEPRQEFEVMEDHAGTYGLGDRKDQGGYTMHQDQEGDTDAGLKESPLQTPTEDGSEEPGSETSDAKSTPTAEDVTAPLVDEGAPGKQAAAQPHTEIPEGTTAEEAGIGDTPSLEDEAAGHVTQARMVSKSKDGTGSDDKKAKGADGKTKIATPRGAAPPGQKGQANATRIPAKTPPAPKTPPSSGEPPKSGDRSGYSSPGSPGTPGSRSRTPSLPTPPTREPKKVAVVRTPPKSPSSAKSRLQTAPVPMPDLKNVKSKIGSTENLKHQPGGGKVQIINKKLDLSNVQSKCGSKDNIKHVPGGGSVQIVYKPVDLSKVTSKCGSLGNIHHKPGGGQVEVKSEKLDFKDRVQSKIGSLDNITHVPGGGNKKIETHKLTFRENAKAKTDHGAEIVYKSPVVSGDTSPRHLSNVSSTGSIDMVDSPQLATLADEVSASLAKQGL

[2] = molecular target: T2, dGAE (tau 297-391) (human, UniProt P10636 614-708); experiment: direct ELISA
T2 construct: monomer; also called dGAE95

[3] = molecular target: T3, tau fragment 369-391 (human); experiment: direct ELISA
T3 peptide: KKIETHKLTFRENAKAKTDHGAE

[4] = molecular target: T4, tau fragment 369-390 (human); experiment: direct ELISA
T4 peptide: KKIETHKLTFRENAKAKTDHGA

[5] = molecular target: T1, full length human tau protein 2N4R …; experiment: ELISA
Procedure: (§1) A series of binding ELISA was performed using various truncated versions of the tau protein and 13mer peptide libraries spanning the entire hT40 molecule for mapping the epitopes of anti-tau scAbs (Full list of protein antigens used is given in Table 14). In general, ELISA plates were coated with 1 μg/ml hT40 or dGA or dGAE or other truncated versions of the protein and in the case of biotinylated peptides, plates were coated with 5 μg/ml Streptavidin followed by 1 μg/ml biotinylated peptide. The plates were blocked with 2% MPBS and scAb samples added at desired starting concentrations and double diluted across the plate. Binding was detected using anti-Human C Kappa HRP conjugated secondary antibody and the resulting immunoreaction was developed and absorbance values measured as described above.

[6] = molecular target: dGA (tau 297-390) (human, UniProt P10636 614-707); experiment: ELISA
Procedure: as §1

[7] = molecular target: T2, dGAE (tau 297-391); experiment: ELISA
Procedure: as §1

[8] = molecular target: tau fragment 337-368 (human); experiment: direct ELISA
Sequence of tau fragment 337-368 (human) (peptide, as listed by the source): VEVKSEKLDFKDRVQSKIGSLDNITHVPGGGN

[9] = molecular target: tau fragment 275-305 (human); experiment: direct ELISA
Sequence of tau fragment 275-305 (human) (peptide, as listed by the source): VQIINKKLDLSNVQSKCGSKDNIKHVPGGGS

[10] = molecular target: tau fragment 348-441 (human, UniProt P10636 665-758); experiment: direct ELISA
Sequence of tau fragment 348-441 (P10636 665-758): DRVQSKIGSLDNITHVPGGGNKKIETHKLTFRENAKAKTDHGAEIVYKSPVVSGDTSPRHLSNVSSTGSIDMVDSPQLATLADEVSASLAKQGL

[11] = molecular target: T1, full length human tau protein 2N4R …; experiment: hT40 ELISA; remark: listed apart in the source
Procedure: as §1

[12] = molecular target: T1, full length human tau protein 2N4R …; experiment: hT40 ELISA; remark: listed apart in the source
[13] = molecular target: T1, full length human tau protein 2N4R …; experiment: hT40 ELISA; remark: listed apart in the source
Target sequence in this assay (P10636 other isoform, or with tags, fused parts or gaps limits assumed): as the sequence (P10636 other isoform, or with tags, fused parts or gaps limits assumed) above

[14] = molecular target: T1, full length human tau protein 2N4R …; experiment: SPR, scAb captured, tau analyte
How it was run: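 scAb captured on flow cell 2 of an antibody-coated chip, flow cell 1 as reference; tau analyte injected 120 s association, 420 s dissociation, glycine pH 2.0 regeneration, in multi-cycle or single-cycle kinetics format. Responses fitted to a 1:1 binding model for kinetics and affinity.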
Target sequence in this assay (P10636 other isoform, or with tags, fused parts or gaps limits assumed): as above

[15] = molecular target: tau fragment 1-111 (human, UniProt P10636 1-111); experiment: direct ELISA
Procedure: as §1

[16] = molecular target: T5, tau fragment 1-49 (human); experiment: direct ELISA
T5 construct: also called Tau 1-49
T5 peptide: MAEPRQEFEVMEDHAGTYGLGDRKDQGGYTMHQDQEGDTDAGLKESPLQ
Procedure: as §1

[17] = molecular target: T6, tau parent peptide 319-331 (TSKCGSLGNIHHK); experiment: ELISA on biotinylated peptide over streptavidin
T6 peptide: Biotin-TSKCGSLGNIHHK
Procedure: Briefly, 5 μg/ml streptavidin (Thermo Fisher) was adsorbed to Nunc 96-well MaxiSorp plates and following incubation at 37° C. for 1 h, the plates were washed as normal and blocked with 2% MPBS. N-terminally biotinylated peptides (Prolmmune Ltd) were added to the plates and incubated for 1 h at 37° C. Subsequently, test scAbs at starting concentrations of 100-500 nM was added and double diluted across the plate for each peptide and incubated for 1 h at 37° C. Rest of the ELISA was conducted as described above and the plates were read at absorbance 450 nm. Immunoreactivity of the scAb of interest was quantified as the % of scAb was bound for each peptide at a chosen concentration (FIG. 15-20).

[18] = molecular target: T1, full length human tau protein 2N4R …; experiment: SPR, summary table
Procedure: The capture antibody was diluted 1/100 in 10 mM Sodium acetate buffer pH 5.0 and passed over the activated chip surface for a period of at least 420 s. Final ligand immobilisation levels over 12,000 RU were deemed to be satisfactory.
The scAb to be tested was added only to flow cell 2 so that flow cell 1 could act as a control to subtract any interaction with the analyte and the chip surface. […] The multi-cycle protocol was as follows-Three start-up cycles composed of an initial capture, to the desired level, of the scAb to be tested was performed followed by a 30 s injection of glycine buffer pH 2.0 after each cycle to regenerate the chip surface. […] The target was added for a 120 s association period and 420 s dissociation period followed by another regeneration, 30 s injection of glycine buffer pH 2.0 in between each cycle.
The single cycle kinetics protocol was similar and utilised the same level of scAb capture. […] In single cycle kinetics the regeneration step was performed only after the final analyte concentration was added. Binding responses were analysed in Biacore X100 evaluation software and data fitted to a 1:1 binding model to obtain kinetic and affinity characterisation.
Target sequence in this assay (P10636 other isoform, or with tags, fused parts or gaps limits assumed): as the sequence (P10636 other isoform, or with tags, fused parts or gaps limits assumed) above

[19] = molecular target: T1, full length human tau protein 2N4R …; experiment: SPR, hT40 immobilised, mAb analyte
Procedure: For anti-tau mAb SPR measurements, htau40 was conjugated to the surface of a CM5 sensor chip using amine coupling as explained previously. Briefly, 2 μg/mL htau40 in 10 mM Sodium acetate buffer (pH 4.0) was passed over the activated chip surface (EDC/NHS) in flow cell 2 for a period for 45 s followed by blocking with 1 M ethanolamine-HCl PH 8.5. Flow cell 1 was set up as reference control and blocked simultaneously. Final immobilisation level of htau40 (Rmax) was approximately 250 RU. […] The mAb was added for a 120 s association period and 600 s dissociation period followed by a regeneration cycle of 30 s injection of glycine buffer pH 1.5 in between each cycle. Binding responses were analysed in Biacore X100 evaluation software and data fitted to a 1:1 binding model to obtain kinetic and affinity characterisation.
Target sequence in this assay (P10636 other isoform, or with tags, fused parts or gaps limits assumed): as the sequence (P10636 other isoform, or with tags, fused parts or gaps limits assumed) above

[20] = molecular target: T7, human tau fragment 296-390 of Line 1 mice (human, UniProt P10636 613-707); experiment: Western blot of brain homogenates
T7 construct: also called L1 fragment; 10-kDa tau fragment

[21] = molecular target: T8, mouse tau (mouse, UniProt P10637 2-733); experiment: Western blot of brain homogenates
T8 construct: endogenous protein of mouse brain or plasma; also called endogenous mouse tau
T8 sequence (P10637 other isoform, or with tags, fused parts or gaps limits assumed): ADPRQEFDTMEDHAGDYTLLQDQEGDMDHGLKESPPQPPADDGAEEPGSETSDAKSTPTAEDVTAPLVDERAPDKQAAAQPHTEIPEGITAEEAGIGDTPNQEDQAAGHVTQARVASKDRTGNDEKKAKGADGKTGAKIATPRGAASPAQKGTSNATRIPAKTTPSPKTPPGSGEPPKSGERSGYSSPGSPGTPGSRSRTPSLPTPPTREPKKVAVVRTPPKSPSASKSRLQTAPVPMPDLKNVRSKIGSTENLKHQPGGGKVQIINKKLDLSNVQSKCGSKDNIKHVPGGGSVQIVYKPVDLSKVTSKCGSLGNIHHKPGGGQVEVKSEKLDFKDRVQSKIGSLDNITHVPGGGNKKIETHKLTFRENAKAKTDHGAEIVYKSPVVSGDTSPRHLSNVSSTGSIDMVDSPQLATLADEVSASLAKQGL

[22] = molecular target: T9, aggregated dGAE (human, UniProt P10636 614-708, limits assumed); experiment: capture ELISA, mAb coated at 1 µg/ml, S1G2 scAb detection
T9 construct: dGAE aggregated in vitro with DTT, 700 rpm, 37 C, 24 h; also called dGAE aggregates; dGAE agg

[23] = molecular target: T10, human tau (hT40) with P301S and G335D of Line 66 mice (human, UniProt P10636 1-758); experiment: Western blot
T10 construct: transgene product in brain homogenate or plasma; also called L66 human tau
T10 sequence (P10636 other isoform, or with tags, fused parts or gaps P301S G335D P301S G335D limits assumed): as the sequence (P10636 other isoform, or with tags, fused parts or gaps limits assumed) above, with P301S, G335D counted along it

B1: S1F4 scAb (scFv, not shown: small tags and cut ends)
scFv: QVQLQESGPSLVKPSQTLSLTCTVSGFSLSSNSVGWVRQAPGKAPEWVAGIDTDGEEGYNPALNSRLSITRDTSKSQVSLSLSSVTSEDTAVYYCVRSYRADGLAYGYVQAIDYWGPGLLLTISSEGKSSGASGESKVDDQAVVTQPSSVSGSLGQRVSITCSGSFIGISSVGWFQQLPGSGLRTVIVASDGRPSGVPDRFSNSKSGNTATLTISSLQAEDEADYFCGSSDRTQYTGVFGSGTRLTVLG
notes: scAb
- EC50 (read off the curve) [1]: ~0.05 µg/mL
- EC50 (read off the curve) [2]: ~0.3 µg/mL
- binding result [3]: binds
- EC50 (read off the curve) [4]: ~2 µg/mL

B2: NS1G7 scAb (scFv, not shown: small tags and cut ends)
scFv: QVQLQESGPSLVKPSQTLSLTCTVSGFSLTSYGVGWVRQAPGKTLEWISSISSGGTTFYNPALKSRLSITRDTSESQVSLSLSSVTTEDTAVYYCTRDVHIYYNDYGAAYGDRDYWGPGLLVTVSSEGKSSGASGESKVDDQAVVTQPPSVSGSPGQRVSITCSGSSSNIGGGNYVSWYQQLPGSGLRTLIYGTTSRASGVPDRFSGSGSGNTATLTISSLQAEDEADYYCASYDTNSGSVFGSGTRLTVLG
notes: scAb
- binding result [5]: binds
- binding result [6]: binds
- binding result [7]: binds
- binding result [8]: binds
- binding result [9]: binds

B3: CB2 scAb (scFv, not shown: small tags and cut ends)
scFv: QVQLQESGPSLVKPSQTLSLTCTVSGFSLSTNSVGWVRQAPGKAPEWVAGIDTDGEEGFNPVLKSRLSITRDTSKSQVSLSLSNVTSEDTAVYYCGRSYRTDGLAYGYVQAIDYWGPGLLVTISSEGKSSGASGESKVDDQSVLTQPSSVSGSPGQTVSITCSGSYIGSSGVGWFQQLPGSGLRTIIVASDGRPSGVPDRFSMSKSGNTATLTISSLQAEDEADYFCGSSDRTQYTGLFGSGTRLTVLG
notes: scAb
- binding result [10]: binds
- binding result [5]: binds

B4: 412G11 (scFv)
scAb: QVRLQESGPSLVKPSQTLSLTCTVSGFSLTSYALGWVRQAPGRAPEWIGNIWRGGRIEYNPALKSRLSITRDTSKSQVSLSLSSVTTEDTAVYYCSRSGGDWGPGLLVTVSSEGKSSGASGESKVDDQAVLTQPSSVSGSLGQRVSITCSGSSSNVGYGNYVGWYQQVPGSAPKLLIYGATSRASGVPDRFSGSRSENTATLTISSLQAEDEADYYCASYDRSESVVFGSGTRLTVLG
- EC50 (read off the curve) [11]: ~2 µg/mL
- EC50 (read off the curve) [12]: ~5 µg/mL
- EC50 (read off the curve) [13]: ~2 µg/mL

B5: 3aG3 scAb (scFv, not shown: small tags and cut ends)
scFv: QVQLQESGPSLVKPSQTLSLTCTVSGFSLSSNGVGWVRQAPGKVPEWVGDISSSGKAYANPALKSRLSITRDTAKTQVFLSLSSVTTEDTAVYYCVRCRDGGVSYGYDIDYWGPGLLVTVSSEGKSSGASGESKVDDQAVLTQPPSVSGSPGQRVSITCSGSSSNIGGGNYLSWFQQVPGSAPKLLIYGATSRASGVPDRFSGSRSGNTATLTISSLQAEDEADYYCASFDTSSGGIFGAGTRLTVLG
notes: scAb
- Kd [14]: 6.1 nM
- koff [14]: 0.000387 s⁻¹
- kon [14]: 62900 M⁻¹ s⁻¹
- EC50 (read off the curve) [15]: ~0.5 µg/mL
- EC50 (read off the curve) [16]: ~1 µg/mL

B6: CE2 scAb (scFv, not shown: small tags and cut ends)
scFv: QVQLQESGPSLVKPSQTLSLTCTVSGFSLTNYPVGWVRQAPGKALEWIGNIENDGSANYASALKSRLSITRDTSKNQVSLSLSSATTEDTAVYYCGREFGGSDGYTYFVDIDYWGPGLLVTVSSEGKSSGASGESKVDDQAVLTQPSSVSKSLGQSVSITCSGSSSNVGYGNYVSWFQQVPGSAPKILIYGATSRASGVPDRFSGSRSGNTATLTITSLQAEDEADYYCASYDGSSSGVFGSGTRLTVLG
notes: scAb
- EC50 (read off the curve) [1]: ~0.1 µg/mL
- binding result [17]: binds
- Kd [14]: 5.03 nM
- koff [14]: 0.00108 s⁻¹
- kon [14]: 214000 M⁻¹ s⁻¹
- Kd [18]: 5.03 nM

B7: CB7 mAb (antibody, mouse IgG2a, V domains shown)
VH: QVQLQESGPSLVKPSQTLSLTCTVSGFSLTNYRVGWVRQAPGKALEWVSNIRSGGTTWYNPALKSRLSITADTSKSQVSLSLSSVTTEDTAVYYCARDSSGDLYAYDYWGPGLLVTVSS
VL: QAVLTQPSSVSRSLGQSVSMTCSGSSSNVGYGNYMAWFQQVPGSAPKLLIYGATSRASGVPDRFSGSRSGNTATLTISSLQAEDEADYYCASYDSTSGGVFGSGTRLTVLG
notes: sheep-mouse IgG2a chimeric mAb; also called CB7 antibody
- Kd [19]: 3.7 nM
- koff [19]: 0.00945 s⁻¹
- kon [19]: 2.57e+06 M⁻¹ s⁻¹
- binding result [20]: no binding
- binding result [21]: no binding
- binding result [22]: no binding (tested: 800 nM)
- binding result [23]: binds
